# Source: the RNAGym collection of RNA variant scans (doi:10.1093/molbev/msab373)
# B1: Azoarcus group I ribozyme (parent)
# chain: GUGCCUUGCGCCGGGAAACCACGCAAGGGAUGGUGUCAAAUUCGGCGAAACCUAAGCGCCCGCCCGGGCGUAUGGCAACGCCGAGCCAAGCUUCGGCGCCUGCGCCGAUGAAGGUGUAGAGACUAGACGGCACCCACCUAAGGCAAACGCUAUGGUGAAGGCAUAGUCCAGGGAGUGGCGAAAGUCACACAAACCGG
# Variants of: B1
# Test: reverse-splicing fitness (ratio to wild type); higher = more active; in vitro selection; Mg2+ level not given
# Outline: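 An in vitro group I ribozyme library with randomized positions was T7-transcribed and gel-purified. In triplicate, 10 pmol RNA in EPPS pH 7.5 was reacted with 50 pmoles of a 30-nt RNA substrate for 1 h at 37 °C across several added MgCl2 levels (1–48 mM), then stopped with EDTA. Products were reverse transcribed from a substrate-complementary primer, PCR-amplified and sequenced (HiSeq 4000). Fitness is a variant's read proportion after selection over that before, normalised to wild type.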
row,Variant,reverse-splicing fitness
1,C82G A111U A120G A145G C150U C169A U176G,0.00683
2,C82G A111U A120G A145G C150U C169A U176A,0.0158
3,C82G A111U A120G A145G C150U C169A U176C,0.0145
4,C82G A111U A120U A145C C150A U176C,0.00373
5,C82G A111U A120U A145C C150A U176G,0.00209
6,C82G A111U A120U A145C C150A U176A,0.00311
7,C82G A111U A120U A145C C169U U176C,0.00238
8,C82G A111U A120U A145C C169U U176G,0.00178
9,C82G A111U A120U A145C C169U U176A,0.00287
10,C82G A111U A120U A145C C150A C169G U176C,0.00259
11,C82G A111U A120U A145C C150A C169G U176G,0.00199
12,C82G A111U A120U A145C C150A C169G U176A,0.00283
13,C82G A111U A120U A145U C150A C169U U176G,0.00195
14,C82G A111U A120U A145U C150A C169U U176A,0.00313
15,C82G A111U A120U A145U C150A C169U U176C,0.00276
16,C82G A111U A120G A145G C169G U176G,0.00429
17,C82G A111U A120G A145G C169G U176C,0.0235
18,C82G A111U A120G A145G C169G U176A,0.0166
19,C82G A111U A120U A145C C150A C169U U176A,0.00306
20,C82G A111U A120U A145C C150A C169U U176C,0.00247
21,C82G A111U A120U A145C C150A C169U U176G,0.00177

row,Variant,reverse-splicing fitness
1,C82G A111U A120U A145G C150U C169U U176C,0.00501
2,C82G A111U A120U A145G C150U C169U U176A,0.00518
3,C82G A111U A120U A145G C150U C169U U176G,0.00302
4,C82G A111U A120G A145U C150U C169A,0.0117
5,C82G A111U A120G A145U C150U C169U,0.00944
6,C82G A111U A120G A145U C150U C169G,0.0123
7,C82G A111U A120G A145G C150G U176G,0.00601
8,C82G A111U A120G A145G C150G U176C,0.0109
9,C82G A111U A120G A145G C150G U176A,0.00727
10,C82G A111U A120G A145G C150G C169G U176C,0.0116
11,C82G A111U A120G A145G C150G C169G U176G,0.00621
12,C82G A111U A120G A145G C150G C169G U176A,0.0104
13,C82G A111U A120U A145G U176C,0.0173
14,C82G A111U A120U A145G U176G,0.00338
15,C82G A111U A120U A145G U176A,0.0121
16,C82G A111U A120G C169U,0.0106
17,C82G A111U A120G C169A,0.00993
18,C82G A111U A120G C169G,0.014
19,C82G A111U A120G C150A C169U,0.00827
20,C82G A111U A120G C150A C169G,0.0106
21,C82G A111U A120G C150A C169A,0.0117

row,Variant,reverse-splicing fitness
1,C82G A111U A120G A145U C150G C169G U176C,0.00489
2,C82G A111U A120G A145U C150G C169G U176G,0.00425
3,C82G A111U A120G A145U C150G C169G U176A,0.00644
4,C82G A111U A120U A145C C150G C169A U176A,0.00316
5,C82G A111U A120U A145C C150G C169A U176C,0.00248
6,C82G A111U A120U A145C C150G C169A U176G,0.00246
7,C82G A111U A120U A145G C150G C169A,0.00873
8,C82G A111U A120U A145G C150G C169U,0.00767
9,C82G A111U A120U A145G C150G C169G,0.00714
10,C82G A111U A120U A145G C150G C169G U176C,0.00596
11,C82G A111U A120U A145G C150G C169G U176G,0.00407
12,C82G A111U A120U A145G C150G C169G U176A,0.00963
13,C82G A111U A120U A145C C150U C169U U176C,0.00208
14,C82G A111U A120U A145C C150U C169U U176G,0.00228
15,C82G A111U A120U A145C C150U C169U U176A,0.00361
16,C82G A111U A120U A145U C150A U176A,0.00457
17,C82G A111U A120U A145U C150A U176C,0.00518
18,C82G A111U A120U A145U C150A U176G,0.00291
19,C82G A111U A120U A145C C169A U176A,0.00191
20,C82G A111U A120U A145C C169A U176C,0.00232
21,C82G A111U A120U A145C C169A U176G,0.00205

row,Variant,reverse-splicing fitness
1,C82G A111U A120G A145U C169G U176G,0.00405
2,C82G A111U A120G A145U C169G U176C,0.0162
3,C82G A111U A120G A145U C169G U176A,0.0119
4,C82G A111U A120U A145U C150A,0.00721
5,C82G A111U A120U A145U C150G,0.00782
6,C82G A111U A120U A145G C150G C169A U176G,0.00502
7,C82G A111U A120U A145G C150G C169A U176C,0.0086
8,C82G A111U A120U A145G C150G C169A U176A,0.0114
9,C82G A111U A120G A145G C169U,0.00985
10,C82G A111U A120G A145G C169A,0.0111
11,C82G A111U A120G A145G C169G,0.0141
12,C82G A111U A120G A145U C169A U176A,0.0133
13,C82G A111U A120G A145U C169A U176G,0.00445
14,C82G A111U A120G A145U C169A U176C,0.0135
15,C82G A111U A120U A145C C169G U176G,0.00158
16,C82G A111U A120U A145C C169G U176C,0.00219
17,C82G A111U A120U A145C C169G U176A,0.00225
18,C82G A111U A120G A145U C169G,0.0137
19,C82G A111U A120G A145U C169A,0.00825
20,C82G A111U A120G A145U C169U,0.01
